Measured values from patent publication US20240415886A1.

Tests used:
[1] = target: mutated p53^R175H peptide (…) presented by HLA-A2 on target cells (human); experiment: cell-based or functional assay
[2] = target: p53^R175H/HLA-A2 tetramer labeled with PE (p53^R175H peptide … with Flex-T HLA-A*02:01 monomer, Biolegend cat #280003) (human); experiment: flow cytometry, PE tetramer staining of gated CD8+GFP+ TCR-transduced primary T cells

B1: inventive TCR specific for the mutated p53^R175H peptide in the context of HLA-A2, with murine alpha and beta constant regions, expressed from lentiviral … (TCR)
TCR alpha: GIQVEQSPPDLILQEGANSTLRCNFSDSVNNLQWFHQNPWGQLINLFYIPSGTKQNGRLSATTVATERYSLLYISSSQTTDSGVYFCAVNQAGTALIFGKGTTLSVSSNIQNPEPAVYQLKDPRSQDSTLCLFTDFDSQINVPKTMESGTFITDKTVLDMKAMDSKSNGAIAWSNQTSFTCQDIFKETNATYPSSDVPCDATLTEKSFETDMNLNFQNLSVMGLRILLLKVAGFNLLMTLRLWSS
TCR beta: EPEVTQTPSHQVTQMGQEVILRCVPISNHLYFYWYRQILGQKVEFLVSFYNNEISEKSEIFDDQFSVERPDGSNFTLKIRSTKLEDSAMYFCASMGTGDEAFFGQGTRLTVVEDLRNVTPPKVSLFEPSKAEIANKQKATLVCLARGFFPDHVELSWWVNGKEVHSGVSTDPQAYKESNYSYCLSSRLRVSATFWHNPRNHFRCQVQFHGLSEEDKWPEGSPKPVTQNISAEAWGRADCGITSASYQQGVLSATILYEILLGKATLYAVLVSTLVVMAMVKRKNS
B1 gave an avidity (lowest activating peptide concentration), CD8+ primary T cells against CD8-negative JRT cells [1] of 10 fold, a percentage of CD8+CD137+ cells in the gated GFP+ cells [1] of 1 ng/mL and a percentage of CD69+ cells in the gated GFP+ JRT cells [1] of 10 ng/mL.

B2: inventive TCR specific for the mutated p53^R175H peptide in the context of HLA-A2, with murine alpha and beta constant regions, expressed from lentiviral … (TCR, V domains shown)
V domain 1: GIQVEQSPPDLILQEGANSTLRCNFSDSVNNLQWFHQNPWGQLINLFYIPSGTKQNGRLSATTVATERYSLLYISSSQTTDSGVYFCAVNQAGTALIFGKGTTLSVSS
V domain 2: EPEVTQTPSHQVTQMGQEVILRCVPISNHLYFYWYRQILGQKVEFLVSFYNNEISEKSEIFDDQFSVERPDGSNFTLKIRSTKLEDSAMYFCASMGTGDEAFFGQGTRLTVVE
With B2 the percent of cells binding tetramer [2] was 82.9%.
